The series concerns Saccharomyces cerevisiae. As to the kind of experiment: protein stability index of tFT-peptide fusion (C-terminal peptide) (PSI (0-1 scale)); higher = more stable (slower turnover). To be noted: temperature: 30 C. As to the method:
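MPS profiling in S. cerevisiae of the yeast C-terminome library: the last 12 aa of each annotated ORF are fused to the C-terminus of a sfGFP-mCherry timer, after a GGGS linker. Cells are FACS-sorted into 8 mCherry/sfGFP bins and deep-sequenced. PSI runs from 0 (unstable) to 1 (stable); wild type and das1Δ backgrounds, two technical replicates each.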

Where [1] appears, read: genetic background: das1 deletion.

± gives the standard deviation of the averaged measurements.

For the sequence VRGRKSRNTSRV [REP2 C-terminal 12 aa], the protein stability index amounted to 0.711 ± 0.013 under setting [1] and 0.755 ± 0.035 (genetic background: wild type).

Turning to VSDAMFDQGDVF [GDH1 C-terminal 12 aa], the protein stability index by setting is: under setting [1], 0.72756 ± 0.0006; (genetic background: wild type) 0.707 ± 0.012.

For VSKLNGFSFTDI [ASE1 C-terminal 12 aa], the protein stability index reads like this: under setting [1], 0.669 ± 0.0088; (genetic background: wild type) 0.674 ± 0.016.

“VSYFSIFSLFFF [YKL096C-B C-terminal 12 aa]” came in with a protein stability index under setting [1] of 0.667 ± 0.047 and a protein stability index (genetic background: wild type) of 0.603 ± 0.016.

VVDLIMEYLQDT [YDL057W C-terminal 12 aa] had a protein stability index under setting [1] of 0.699 ± 0.013 and a protein stability index (genetic background: wild type) of 0.741 ± 0.078.

Consider VVFLSVLKRNDL [YOL099C C-terminal 12 aa], for which the protein stability index amounted to 0.685 ± 0.031 under setting [1] and 0.772 ± 0.11 (genetic background: wild type).

As to VVPVLMGNMKVA [YEL073C C-terminal 12 aa], the protein stability index runs as follows: under setting [1], 0.69 ± 0.01; (genetic background: wild type) 0.634 ± 0.053.

With VWTLELSVIGVQ [WHI2 C-terminal 12 aa], the protein stability index by setting is: under setting [1], 0.542 ± 0.011; (genetic background: wild type) 0.572 ± 0.011.

In the case of WAINESEGYGFR [HUL4 C-terminal 12 aa], the protein stability index was found to be 0.727 ± 0.016 under setting [1] and 0.708 ± 0.051 (genetic background: wild type).

For WAREQQKRQLSL [KAP95 C-terminal 12 aa], the protein stability index came to 0.725 ± 0.0096 under setting [1] and 0.729 ± 0.019 (genetic background: wild type).

As to WKEVLKFPKSFN [HXT15 C-terminal 12 aa], the protein stability index by setting is: under setting [1], 0.724 ± 0.0077; (genetic background: wild type) 0.714 ± 0.031.

As to WKKFIPKTWLSS [CQD2 C-terminal 12 aa], the protein stability index under setting [1] is 0.7 ± 0.0086 and the protein stability index (genetic background: wild type) came out at 0.4878 ± 0.0047.

For WKKFLKFSKNSD [HXT13 C-terminal 12 aa], the protein stability index came to 0.7176 ± 0.0052 under setting [1] and 0.685 ± 0.039 (genetic background: wild type).

In the case of WKLLDDSELGWY [RGT1 C-terminal 12 aa], the protein stability index was 0.836 ± 0.0089 under setting [1] and 0.804 ± 0.052 (genetic background: wild type).

Consider WLKDQIIGEMTV [CAL4 C-terminal 12 aa], for which the protein stability index under setting [1] is 0.696 ± 0.036 and the protein stability index (genetic background: wild type) was determined as 0.678 ± 0.025.

In turn, WPVTKPEDTKDN [ZWF1 C-terminal 12 aa] registered a protein stability index under setting [1] of 0.699 ± 0.013 and a protein stability index (genetic background: wild type) of 0.67 ± 0.018.

Consider WRPQQPGQIEQA [YLR101C C-terminal 12 aa], for which the protein stability index stood at 0.723 ± 0.03 under setting [1] and 0.6668 ± 0.00094 (genetic background: wild type).

With WTKDLGCWSLYK [HIR1 C-terminal 12 aa], the protein stability index is, setting by setting: under setting [1], 0.716 ± 0.025; (genetic background: wild type) 0.6994 ± 0.0037.

As for WTNYLEKESEKD [RUD3 C-terminal 12 aa], the protein stability index reads like this: under setting [1], 0.711 ± 0.04; (genetic background: wild type) 0.693 ± 0.045.

For YAEGSLVKTEKL [FAA2 C-terminal 12 aa], the protein stability index is 0.70242 ± 0.0001 under setting [1] and 0.698 ± 0.016 (genetic background: wild type).

YCFAKNDLFFNN [POM152 C-terminal 12 aa]: the protein stability index came out at 0.743 ± 0.014 under setting [1] and 0.716 ± 0.011 (genetic background: wild type).

On to YCPELGKTECFD [FMP30 C-terminal 12 aa], for which the protein stability index is, setting by setting: under setting [1], 0.691 ± 0.0061; (genetic background: wild type) 0.69 ± 0.0088.

YDANGSSSTIKR [MAM3 C-terminal 12 aa] showed a protein stability index under setting [1] of 0.736 ± 0.011 and a protein stability index (genetic background: wild type) of 0.7007 ± 0.00097.

For YDEIVPLMSDEE [ECM21 C-terminal 12 aa], the protein stability index under setting [1] worked out at 0.7035 ± 0.0035 and the protein stability index (genetic background: wild type) amounted to 0.716 ± 0.057.

Take YDLQALFKYFFS [ADY3 C-terminal 12 aa]: the protein stability index stood at 0.691 ± 0.011 under setting [1] and 0.64 ± 0.022 (genetic background: wild type).

Consider YFKVFDWCKQKR [CLB6 C-terminal 12 aa], for which the protein stability index reads like this: under setting [1], 0.681 ± 0.018; (genetic background: wild type) 0.684 ± 0.043.

Regarding YISDHIWKTSSH [YOR302W C-terminal 12 aa], the protein stability index reads like this: under setting [1], 0.743 ± 0.04; (genetic background: wild type) 0.698 ± 0.035.

As for YKNRPNKEKDTL [STB6 C-terminal 12 aa], the protein stability index is, setting by setting: under setting [1], 0.693 ± 0.021; (genetic background: wild type) 0.688 ± 0.047.

The record behind these values is the supplement of paper PMC10724198.
